PMC3847722 (Toxins, 2013)

Target: T1, botulinum neurotoxin serotype B (Clostridium botulinum., UniProt P10844)
T1 construct: source: bought: Metabiologics Inc
Test: BLI; […], dissociation in PBS 1800 s; 1:1 model, […]
Conditions: both partners purified

B1: MCS6-27 (antibody, V domains shown)
VH: EVQLEQSGPGLVKPSQSLSLTCTVTGYSITNDYAWNWIRQFPGNKLEWMGYINYSGTTSYNPSLKSRISITRDTSKNQFFLQFNSVTTEDTATYYCARSPLAYWGQGTLVTVSA
VL: DIVLTQTPASLSVSVGETVTITCRASENIYSHLAWYQQKQGKSPQLLVYTATNLADGVPSRFSGRGSGTQYSLKINSLQSEDFGIYFCQHFWGTPWTFGGGTKLEIK
notes: also called mAb MCS6-27; mAb6-27
Kd: 0.086 nM
